Data on one molecule can be found in article PMC2885824.

The data set addresses human alpha-thrombin (Homo sapiens, UniProt P00734;P00734 328-363;364-622). Put plainly: competition.

With GGTTGGTGTGGTTGG (structured_DNA) [15nt anti-thrombin DNA aptamer], the binding result was “binds”.
